Experimental data published in patent US20070212390A1.

Legend:
[1] = target: chimeric receptor consisting of the extracellular domain of human VEGFR-3 and the cytoplasmic domain of the erythropoietin receptor, on Ba/F3 cells (human), P35916; assay: cell-based or functional assay
[2] = target: chimeric receptor consisting of the extracellular domain of mouse VEGFR-2 and the cytoplasmic domain of the erythropoietin receptor, on Ba/F3 cells (mouse), P35918; assay: cell-based or functional assay
chimeric receptor consisting of the extracellular domain of mouse VEGFR-2 and the cytoplasmic domain of the erythropoietin receptor, on Ba/F3 cells (mouse), P35918, sequence (P35918 20-762 limits assumed, change not shown, form in doubt): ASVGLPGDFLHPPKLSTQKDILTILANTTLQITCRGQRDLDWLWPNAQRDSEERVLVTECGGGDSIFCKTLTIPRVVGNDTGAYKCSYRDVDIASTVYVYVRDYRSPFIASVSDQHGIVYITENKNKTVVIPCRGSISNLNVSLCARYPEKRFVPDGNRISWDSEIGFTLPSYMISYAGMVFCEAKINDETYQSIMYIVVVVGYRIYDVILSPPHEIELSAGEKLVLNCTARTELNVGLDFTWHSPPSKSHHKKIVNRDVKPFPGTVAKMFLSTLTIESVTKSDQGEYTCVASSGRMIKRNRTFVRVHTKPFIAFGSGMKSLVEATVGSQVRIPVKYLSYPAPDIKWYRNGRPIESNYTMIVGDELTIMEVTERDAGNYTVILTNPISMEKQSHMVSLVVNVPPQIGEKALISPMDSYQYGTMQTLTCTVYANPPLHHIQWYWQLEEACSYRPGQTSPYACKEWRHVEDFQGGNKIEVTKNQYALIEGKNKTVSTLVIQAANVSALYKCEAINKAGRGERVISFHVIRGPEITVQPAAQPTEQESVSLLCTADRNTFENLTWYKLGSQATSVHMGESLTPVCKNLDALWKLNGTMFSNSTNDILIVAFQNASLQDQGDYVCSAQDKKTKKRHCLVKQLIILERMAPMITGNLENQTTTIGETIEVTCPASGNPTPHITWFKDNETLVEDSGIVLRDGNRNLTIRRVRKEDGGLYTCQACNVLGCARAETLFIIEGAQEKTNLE

chimeric receptor consisting of the extracellular domain of human VEGFR-3 and the cytoplasmic domain of the erythropoietin receptor, on Ba/F3 cells (human), P35916, sequence (P35916 25-775 limits assumed, change not shown, form in doubt): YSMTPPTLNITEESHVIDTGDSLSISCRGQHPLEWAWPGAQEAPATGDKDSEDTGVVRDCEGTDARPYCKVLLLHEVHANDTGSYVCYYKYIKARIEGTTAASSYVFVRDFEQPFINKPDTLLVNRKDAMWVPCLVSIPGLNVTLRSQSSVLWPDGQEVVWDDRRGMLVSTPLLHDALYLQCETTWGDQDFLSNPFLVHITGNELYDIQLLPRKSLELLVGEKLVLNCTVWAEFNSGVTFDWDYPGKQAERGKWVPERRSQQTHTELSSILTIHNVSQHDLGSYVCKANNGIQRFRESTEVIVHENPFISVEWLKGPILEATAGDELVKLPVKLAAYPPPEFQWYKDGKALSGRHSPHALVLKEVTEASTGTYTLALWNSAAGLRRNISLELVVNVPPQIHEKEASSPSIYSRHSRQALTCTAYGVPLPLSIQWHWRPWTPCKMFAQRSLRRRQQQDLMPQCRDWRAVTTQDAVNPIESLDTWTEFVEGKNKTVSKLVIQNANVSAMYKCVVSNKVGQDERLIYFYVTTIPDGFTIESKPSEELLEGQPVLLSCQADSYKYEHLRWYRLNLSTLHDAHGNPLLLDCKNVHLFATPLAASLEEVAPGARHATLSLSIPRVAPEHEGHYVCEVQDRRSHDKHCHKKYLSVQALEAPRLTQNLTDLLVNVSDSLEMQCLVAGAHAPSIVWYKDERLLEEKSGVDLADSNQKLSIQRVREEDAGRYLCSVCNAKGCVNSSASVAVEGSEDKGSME

B1: VEGF-D ΔN.IISS (human VEGF-D with R204,205S point mutations and lacking the N-terminal propeptide), O43915 87-354 (ligand)
chain: ARQDYKDDDDKTRFAATFYDIETLKVIDEEWQRTQCSPRETCVEVASELGKSTNTFFKPPCVNVFRCGGCCNEESLICMNTSTSYISKQLFEISVPLTSVPELVPVKVANHTGCKCLPTAPRHPYSIISSSIQIPEEDRCSHSKKLCPIDMLWDSNKCKCVLQEENPLAGTEDHSHLQEPALCGPHMMFDEDRCECVCKTPCPKDLIQHPKNCSCFECKESLETCCQKHKLFHPDTCSCEDRCPFHTRPCASGKTACAKHCRFPKEKRAAQGPHSRKNP
- activity in VEGFR-3 bioassay (Ba/F3 cell survival and proliferation, tritiated-thymidine incorporation) [1]: 70 fold
- activity in VEGFR-2 bioassay (Ba/F3 cell survival and proliferation, tritiated-thymidine incorporation) [2]: 70 fold
